Data taken from the supplement of paper PMC9170038.

Test system: MS2 coat protein
Test: apparent KD of MS2 coat protein; higher = weaker reporter binding
Conditions: Eterna round: R107
Experimental: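 RNA-MaP round R107: designed RNA switches with theophylline, tryptophan, arginine or FMN aptamers are transcribed on-chip within common flanks. They are titrated with SNAP-549-labelled MS2 coat protein in RNA-MaP buffer (100 mM Tris pH 7.5, 80 mM KCl, 4 mM MgCl2), without ligand or with the indicated ligand. Median apparent KD per design.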

[1] = input ligand: theophylline 20 uM
[2] = input ligand: tryptophan 2.4 mM
[3] = input ligand: theophylline 2 mM

Sequence	apparent KD of MS2 coat protein (input ligand: arginine 13.2 mM) [µM]	apparent KD of MS2 coat protein [1] [µM]	apparent KD of MS2 coat protein [2] [µM]	apparent KD of MS2 coat protein [3] [µM]	apparent KD of MS2 coat protein (input ligand: none) [µM]
UUAGAUAUGACAGAUACCAGCGUGUUGUUGAACAUGAGGAUCACCCAUGUAGUGAUCGAGCGCCCUUGGCAGCUGGUGUGUUUGG [7.Q]	0.0776	0.174	0.225	–	–
AACAUCACAACGGCCGCCACUGCACAUGACAACAUGAGGAUCACCCAUGUGGAUCACCCAUGUCCCAGGACCGGGUUAUGAGGAU [Same State - Tryptophan B #1]	0.0237	0.0399	–	0.0336	–
CUUACACAUGAGGAUCACCCAUGUCAUGAUACCAGCCAAUACACUGGCCCUUGGCAGCAUCUCAGCCUCAGCUACAUUGACUGAC [theeternabot_sameState_MS2_Theo_A_2]	0.0189	0.0282	0.0178	–	–
CACUACAUGAGGAUCACCCAUGUCUUCCGACGAGGACCGGUACGGCCGCCACUCGAACCUCCAACUAAUACCUCAACCGUCUGAU [theeternabot_sameState_MS2_Trp_A_25]	0.0365	0.11	–	0.101	–
AACAUGAGGAUCACCCAUGUCCUCGUGAUUCGAGGACCGGUACGGCCGCCACUCGGUCCUCGCGAGGAGGAGUCAAAGACUCCAA [Omei Trp A SS A v1]	0.098	0.229	0.137	0.204	0.144
CUCGGAACAAUCGAUACCAGUUCUCAUGGAUUGCAGCAGUACAUGAGGAUCACCCAUGUAAACCCUUGGCAGCGAAGAACAAGAC [theeternabot_exclusion_MS2_Theo_B_18]	0.026	0.0482	0.0334	–	–
UGAUACCAGUCGGCCGCCACUAUGCUAGAUACUAGCAAUAAAUGGGAACAUGAGGAUCACCCAUGUAGGACCGGGACUGGUAUCU	0.0321	0.0429	0.064	0.0427	0.0336
GUUUUAUCAAAAGAUGAAACAGUGGGUGAACGAGGACCGGUACGGCCGCCACUCGGACAUGAGGAUCACCCAUGUCCAUGUGAAA [AstrosExyTryA#13]	0.0154	0.0171	0.0541	0.0211	0.0184
AGACAUGAGGAUCACCCAUGUAGCAUGGAUACCAGAUGUAGAUUAGUCCCUUGGCAGCUGUGGUAAAGUGAUGCAUUGCUCCUAG [Exclusion - Theophylline A (Freestyle 3)]	0.0352	0.0553	0.0388	–	–
AAUAAUAAGGCGGCCGCCACUAAACAUGAGGAUCACCCAUGUCUCGAGCGCAUACAUAAGGGAUGUAGGACCGGGCCAAUAAUAA [Exclusion - Tryptophan B (Freestyle 1)]	0.019	0.0257	0.0213	0.023	0.0235
AACUGAAGCACCUUAUGCGGCGGCAAAACCCGAGGACCGGUACGGCCGCCACUCGAGUCGCAACAUGAGGAUCACCCAUGUGUAU [theeternabot_exclusion_MS2_Trp_A_30]	0.0325	0.0558	–	0.0788	–
GAUGAUAUUGCAGAUACCAGACACAUGAGGAUCACCCAUGUCGCUGGGUUACUGGGUCGUGUCCCUUGGCAGCUGCGAUAUCAUC [Belize]	0.0336	0.0892	0.0421	–	–
GGGCGCUAUCCCGCGAGGGAUAGCGUUCGGCGAGGACCGGUACGGCCGCCACUCGAACGAGUGGGUACAUGAGGAUCACCCAUGU [Faa]	0.0231	0.0396	0.0306	0.0363	0.028
UUGGCACGGACGGCCGCCACUCUUUCACAUGAGGAUCACCCAUGUUAUCUAGUCCUCAGCAGAAAGAGGACCGGGUCGGAGUUGG [theeternabot_exclusion_MS2_Trp_B_13]	0.0751	0.168	–	0.214	–
GAGGUCCUGAGAGAUACCAGUGAGGCCACAUGAGGAUCACCCAUGUCCCUCACUCCGGCCCACCCUUGGCAGCUCGGAAGGUAAA [Exclusion Theophylline B GF 23]	0.0149	0.0297	0.0175	–	–
UGUAUGGACUGAAGGAGCGGGAAAUAAACUUGAGGAUCACCCAGGUAAUAGGCGAAAGCCACCCAGGUAGGUCGCAGUCCAUACU	0.022	0.0385	0.0285	0.0457	0.0243
UGUAUGUGAUCUGAUACCAGUCCAACUGGUAAAGCGUGAGGAUCACCCAUGCAAAAUUGGGACCCUUGGCAGCAGAUCGCAUACU	0.0486	0.29	0.185	0.208	0.337
AGAAUAUAGUCGGCCGCCACUCUUCAUACAUGAGGAUCACCCAUGUUUAAUUCUUGGAUAUUCUUGAGGACCGGGACAUAGGCAU [JR_SSTryptoB_Sub019]	0.018	0.0231	–	0.0216	–

Sequence	apparent KD of MS2 coat protein (input ligand: arginine 13.2 mM) [µM]	apparent KD of MS2 coat protein [1] [µM]	apparent KD of MS2 coat protein [2] [µM]	apparent KD of MS2 coat protein [3] [µM]	apparent KD of MS2 coat protein (input ligand: none) [µM]
AAUAUUAACUGAAGGAGCGUGUUAUGUACAUGAGGAUCACCCAUGUAUAGGGUAAUACUAACACAGGUAGGUCGCAGAAUAAUUA [JR_SSArginiB_Sub010]	0.0202	0.0379	0.0185	0.022	0.0206
AGCACUGUGGCGGCCGCCACUACAUAUAGGGUGGUCAGGCCCAUAAUACAUGAGGAUCACCCAUGUAGGACCGGGCCUCAGUGCA [Omei Trp Exc B A v13]	0.0127	0.02	–	0.0165	–
AUUGUCAAGUCGGCCGCCACUUCUGCCAUGGCCACCAGUCGACAUGAGGAUCACCCAUGUCUCUUAAGGACCGGGACUUUCAAUU [theeternabot_sameState_MS2_Trp_B_6]	0.0131	0.016	–	0.0139	–
AAGCUGCCAAGAACAUGGGUGAAAUGUGAUACCAGCUAGGAAACUAGCCCUUGGCAGCACAUGAGGAUCACCCAUGUAAUAAUAA [(T)'-(M)'-(T1)-(T2)-(M1)-(M2)_Design2_2/19/17]	0.0757	0.264	0.377	–	–
UGUACAUGAGGAUCACCCAUGUUACAUGAUACCAGACAUGAGAGUGUCCCUUGGCAGCAUGGAGCUGAUACGGCGGGAAGCCGGA [#09 SameState-TheophyllineA]	0.0261	0.0404	0.027	–	–
AAUAACAUGAGGAUCACCCAUGUAAAAGAUACCAGAGUGAUGAUCCUCCCUUGGCAGCUUAAACGCUAUUGGAAACAAUAGCGAA [Mat - Same State Theophlline A - Mod of Eli - D3]	0.0545	0.163	0.0577	–	–
CAUACUUUAGUAUGUUAUGUGGACAGUGAUACCAGAUACGAAAGUAUCCCUUGGCAGCACAACAUGAGGAUCACCCAUGUAUUUU [Theophylline A 4]	0.0258	0.0222	0.0215	–	–
ACGAUGCGACAUGAGGAUCACCCAUGUGAUACCAGCCUGGAAACAGGCCCUUGGCAGCACAAAUACUCCAGAAACGCAUCGAAUA [MAT - Exclusion Theophlline A - Mod of Eli - D3]	0.0963	0.356	0.348	–	–
GCUGUGAAGUCGGCCGCCACUGGUUAGUUUUACCUCAUGUAACAUGAGGAUCACCCAUGUAAUUUCAGGACCGGGACAACAGCAA [JR_ExcTryptoB_Sub017]	0.135	0.588	–	0.853	–
UGAUAUGUGGGAAGGAGCGCAUACUUCACAUGAGGAUCACCCAUGUCAAGACGUGAGUCAGUGCAGGUAGGUCGCCUAGUUAUGA [Same State - Arginine B (Freestyle 19)]	0.0368	0.101	0.0853	0.147	0.124
AAGAGACAUGAGGAUCACCCAUGUGUUGAUACCAGAAACACAAAGUUCCCUUGGCAGCAAAUCUGAGCGAAACGAUCUAGAGCGC [theeternabot_sameState_MS2_Theo_A_30]	0.0433	0.0849	0.0706	–	–
CGGUAGGUAGGUCGAUAUCUACCCGUAGAAGGAGCGUAAGAAAAUACAGGUAGGUCGCUACGGAACAUGAGCAUCAGCCAUGUCC [SSArg A #12-Alt Ms2]	0.0139	0.0206	0.0126	0.0121	0.011
ACUAGUUGUGCAGAUACCAGACAUGAGGAUCACCCAUGUUUGGGUUGUUCGCAACUUCCUGUCCCUUGGCAGCUGUACAUCUAGA [Omei Theo B Exc v5]	0.0189	0.0469	0.0243	–	–
UUUUAAGGGAUCGGAGCUGGUAGCAGAGAUACCAGAGUAGUAAUGCUCCCUUGGCAGCUCAGUACAUGAGGAUCACCCAUGUUUU [Exclusion Theophylline A GF26]	0.0163	0.021	0.0179	0.0253	0.0176
CCGCACAUGAGGAUCACCCAUGUCCGGGUUCGAGGACCGGUACGGCCGCCACUCGGACAUGUGCGCCCUUCAUGCACUGUAUAAA [Macetius]	0.0389	0.158	–	0.239	–
AACAUGAGGAUCACCCAUGUAUUGGGUGAUACCAGCCUGAAUAAUGGCCCUUGGCAGCACCGCGCUAACUUUAUGUCUGCGAAAC [Erterean]	0.0873	0.456	0.118	–	–
UAUCGUCAGACGGCCGCCACUAGAACAUGAGGAUCACCCAUGUAGGCGGCCGAUUCCUCAUGAACUAGGACCGGGUCUGACGAAU [(Trp1)-(Ms2)-(T)'-(M)'-(Trp2)_Design12]	0.00818	0.026	0.0133	0.00889	0.0066
UAUCCACAUGAGGAUCACCCAUGUUAGGAAGGAGCGGUGAAUGAACCAGGUAGGUCGCCUAGCUGAGGACCAUCGAUGGAUUCGU [Exclusion - Arginine A (Freestyle 15)]	0.017	0.0255	0.0201	0.0275	0.0203
